Experimental data: doi:10.1101/2024.01.22.576655 (bioRxiv, 2024)

How the values were obtained:
Ribosomal protein L29 = Ribosomal protein L29 (Escherichia coli (endogenous in …, UniProt P0A7M6 1-63)); assay: cross-linking
cross-linking = target: the molecule itself; assay: cross-linking

binding result (Ribosomal protein L29): binds
B1: DnaJ, recombinant (natural protein, Escherichia coli, UniProt P08622 1-376, looked up)
chain: MAKQDYYEILGVSKTAEEREIRKAYKRLAMKYHPDRNQGDKEAEAKFKEIKEAYEVLTDSQKRAAYDQYGHAAFEQGGMGGGGFGGGADFSDIFGDVFGDIFGGGRGRQRAARGADLRYNMELTLEEAVRGVTKEIRIPTLEECDVCHGSGAKPGTQPQTCPTCHGSGQVQMRQGFFAVQQTCPHCQGRGTLIKDPCNKCHGHGRVERSKTLSVKIPAGVDTGDRIRLAGEGEAGEHGAPAGDLYVQVQVKQHPIFEREGNNLYCEVPINFAMAALGGEIEVPTLDGRVKLKVPGETQTGKLFRMRGKGVKSVRGGAQGDLLCRVVVETPVGLNERQKQLLQELQESFGGPTGEHNSPRSKSFFDGVKKFFDDLTR
binding result (cross-linking): binds
